Laboratory results from article PMC10095184.

Legend:
[1] = tested on: NS5-6xHis BTV-1 (Bluetongue virus 1); experiment: pull-down RT-qPCR
[2] = tested on: NS5-6xHis AHSV-4 (African horse sickness virus 4); experiment: pull-down RT-qPCR

Substance: BTV-1 Seg-1 mRNA
- binding signal (Ct (ctrl 14.81)) [1]: 10.8
- binding signal (Ct (ctrl 18.09)) [1]: 10.9
- binding signal (Ct (ctrl 14.81)) [2]: 11.3
- binding signal (Ct (ctrl 18.09)) [2]: 11.6

Substance: BTV-1 Seg-3 mRNA
- binding signal (Ct (ctrl 19.32)) [1]: 11.2
- binding signal (Ct (ctrl 19.87)) [1]: 11.5
- binding signal (Ct (ctrl 19.32)) [2]: 11.9
- binding signal (Ct (ctrl 19.87)) [2]: 11.8

Substance: BTV-1 Seg-7 mRNA
- binding signal (Ct (ctrl 16.17)) [1]: 11.1
- binding signal (Ct (ctrl 16.39)) [1]: 10.2
- binding signal (Ct (ctrl 16.17)) [2]: 11.8
- binding signal (Ct (ctrl 16.39)) [2]: 10.9
